Results on 1 protein are retold here after publication PMC4604771, “A novel eurythermic and thermostale lipase LipM from Pseudomonas moraviensis M9 and its application in the partial hydrolysis of algal oil” (BMC Biotechnology, 2015).

Substrate in the data set: CCCCCCCC(=O)Oc1ccc([N+](=O)[O-])cc1
Description: p-nitrophenol release, Lineweaver-Burk plot. The format is biochemical, Pseudomonas moraviensis. To be noted: 50 mM Tris-HCl, pH 8.0, 65 °C, 0.01-2 mM substrate.

B1: LipM (Pseudomonas moraviensis) (protein)
chain: MGLFDYRNADGKALYSDAIALTLYAYAPTGEPLPATAWAPVAATALGYQGKVGPQGTFFGEQDGYTSAEAEVLGKYDAAGKLIGIGIAFRGTGGLGYSDTYGDMKNNLLAAFGPSDYASHYAKNAFDHLLKAVAAFAIANGIAAQDVLISGHSLGGLGVNSVAELSASHWGGFFKDANYIAFASPTQSSTGSNVLNIGYENDPVFRALDGTTFSSGSLGKHDGAHDSTTDNIVNFTDNYASTAQNLVPFSIVNPLNWSAHSSLGYADGLNRVIDSQFYALTHKDSTIIVSNLEEASRGKTWVEDLGRSGEPHVGSTLIIGTHSSDWLKGGSGNDFLEGLGGDDRFRDDGGFNILLGGQGHNTFELQKPLQNFSFANDGDGTLYVRDAYGGISLTRDIGALVSKEAGSWWGSKEITWGVTAKGLSNGSELTQYNHSLSGDGYGNALHASADGDWLFGLGGNDSLISDKGHVTFVGGAGNDVMTALGGNNTFLFSGAFGFDAVNGYQGNDKLVFMGVEGAGQGYDYKQHASQSGDDTVLKIGDYAVTLIGVGVANLSDSSIMFA
notes: pET-22b(+) NdeI/XhoI, His tag kept (C-terminal by vector)
One may read the Km as the substrate concentration at which the rate is half of its maximum. Usually kcat stands for the maximal rate divided by the concentration of active sites. Consider B1, for which the Michaelis constant (Km) came out at 360 µM and the kcat is 35.7 s⁻¹.
